Assay: soluble on expression in E. coli; label from the status in PepcDB or PDB records

| Sequence | soluble on expression in E. coli |
| --- | --- |
| MTDFTTDIAQALVRKEDLKEVFRTHLENAVNTLLATELTAFLDYEKYDRGGFGSGNSRNGTYPRTLHTEFGDLHLSIPRDRNGEFHQQTISPYKRSNDTLESFVIHMYQKGVTTGEITDLLERMYGHHYTPQTISNMTKTMEKQVEAFKARTLAKRYVCVYLDATFIAIKRDTVSKEAVYLAIGIQEDGTKEVLAYTIAPTESALVWKEVLEDLQNRGVEDVLLFVSDGLKGIVDSIQSLFPSSSYQLCCVHLSRNLAHKVRVSDRAEVCGDFKRVYRATSKQEGQKALDDFVTKWKKVYPRATKSLEENPFILTFYDFPQAIWRSIYSTNLIESFNKQLKKYSKRKEQFPNEPSIERFLVSQFEPYNQKFSTRCHLGFDLARAELVSMFERRK | soluble |
| MAHHHHHHMSRYVKYFVQAKRLDKRKRKFGQMDFLELSKELSIPFPLRERNQPKHLDLSKYLNIKVGDLVKVLYGPYKDKEGIVLNINTKRNTVIVDGCNMKKSAWNVTKKNAGSIITQEMPIHITNVAILDPISKKATVVKRRYMMHGECVRISKISGCAMPEPVSVQALKEQNNYELFIHKKKTGPPIKDIYAERDSKNFNLLKKIAYEIKRRRFYEMKNFFRDASPGKGSASPGGGSASLGEGSSSLEG | not soluble |
| MTLPFKNGRGTMKINGVTIQMLPAASGDCIYLEFPDSDFRMLIDGGYAKTYQKYLKKFLLKLAAEGKRLNLIVVTHIDDDHISGIRALLKENGDSRNPKIIEIDEIWFNSLNQCITSRNAEQGMSFAVKIILKSMCSTDIDFECEYKKQNISYTNGKNLAELIQAGGYRWNASVVNNLVSKGQIVQFGDLKITILNPGIETLTKMGKKWLYHLKQINSNNIEITRDPLFDAAFEGFLLNNEKNIEFKQENISYSSEDLDWLDKYAEYKDIEMDSKITNCSSIAILIDYKDIKMLFPGDSPIQLFENELPKILDVIKLPHHGSAKNISLEFIKNTKVKYYLLSTDGKRYIDHPGKAVIANIIKNTGNNTELIKNYEIKFLKGLGKLDAED | not soluble |
| MIASSPIDAAALRASVAAALDPSTAVATLARFDTHAPRLLDALSTLYGDHADYVTWLPQWLSALGVVAQARPAALRHLDDSRAPGWFGQQDMLGYSAYVDRFAGTLRGVAERVPYLQELGVRYLHLLPFLRARAGDNDGGFAVSDYGQVEPALGSNDDLVALTARLRAANISLCADFVLNHTADDHAWAQAARAGDTRYLDYYHHFADRNAPDQYDTTLVQVFPQTAPGNFTWVDETRQWMWTTFYPYQWDLNWSNPAVFGEMALAMLELANLGVEAFRLDSTAYLWKRPGTNCMNQPEAHTILVALRAVADIVAPSVVMKAEAIVPMAELPPYFGSGVQRGHECHLAYHSTLMAAGWSALALQRGDILQDVIAHSPPLPPNCAWLSYVRCHDDIGWNVLQHEAAGTAAQPPFSLREVAQFYANAVPGSYARGESFQSSGDGVHGTNGMSAALVGVQAAHEHADAAAAARAVDRLVLLYAVSLAMPGVPLIYMGDELALPNDTAYLDDAQRRHEGRWLHRPAMAWELAAQRHDASTLAGTVYTRLRALIRLRAGLPALAATQSLGSVALGDARLFALTRGDSFLAVHNFSDVPLPVDLTQTGHALWAVLDTDGTGDAPEPHTELLLPAYGVRWLQRR | soluble |
| MDSIYRDAGYDVLKVSAKTGEGIDELVDYLEGFICILAGPSGVGKSSILSRLTGEELRTQEVSEKTERGRHTTTGVRLIPFGKGSFVGDTPGFSKVEATMFVKPREVRNYFREFLRYQCKYPDCTHTNEPGCAVKEAVKNGEISCERYKSYLKIIKVYLEEIKELCREDLEHHHHHH | not soluble |
| QLVLTQSSSASFSLGASAKLTCTLSSQHSTYTIEWYQQQPLKPPKYVMDLKQDGSHSTGDGIPDRFSGSSSGADRYLSISNIQPEDEAMYICGVGDTIKEQFVYVFGGGTKVTVLGEPKSTPTLTVFPPSSEELKENKATLVCLISNFSPSGVTVAWKANGTPITQGVDTSNPTKEGNKFMASSFLHLTSDQWRSHNSFTCQVTHEGDTVEKSLSPAECL | soluble |
| MRWRADFLSAWAEALLRKAGADEPSAKAVAWALVEADLRGVGSHGLLRLPVYVRRLEAGLVNPSPTLPLEERGPVALLDGEHGFGPRVALKAVEAAQSLARRHGLGAVGVRRSTHFGMAGLYAEKLAREGFVAWVTTNAEPDVVPFGGREKALGTNPLAFAAPAPQGILVADLATSESAMGKVFLAREKGERIPPSWGVDREGSPTDDPHRVYALRPLGGPKGYALALLVEVLSGVLTGAGVAHGIGRMYDEWDRPQDVGHFLLALDPGRFVGKEAFLERMGALWQALKATPPAPGHEEVFLPGELEARRRERALAEGMALPERVVAELKALGERYGVPWRDDA | soluble |
| MKKIILVAALLSAAVCLPAQNKGGNKSGGINLSLWKKACTQPLDSTQTTYVNLGLFSAMHKLHGVGFNAFGSMVQNNMNGVQISGLANLAGGSMHGVQIGGISNVNGNNLAGLSVSGLVNITGNKAKGVLITGLSNIAGDNMRGLMMSGIMNITGDKAAGVQLAGLANVTGEEYDGLMMSGLLNVVGEEMNGLQLSGLANVTGGQMNGVQLGLFNFASKAKGLQIGLFNYHKEDMKGLQLGLVNANPQTKVQLMVFGGNSTKINVGARFKNKLFYTILGGGTHYLDFDDKFSAALFYRAGLELPLYRNLFVSGDLGYQHIETFRNKKVEGIPARLYALQARLNLEYRFTDKFGLFVTGGYGGSRYYNKARTYDKGVIAEAGVVLFMAGDPLEHHHHHH | not soluble |
| GSEPYSLTAQQSSLIREDKSNAKLWNEVLASLKDRPASGSPFQLFLSKVEETFQCICCQELVFRPITTVCQHNVCKDCLDRSFRAQVFSCPACRYDLGRSYAMQVNQPLQTVLNQLFPGYGNGR | soluble |
| MMNEPQVSFITVCYNGFKDTCELIESLQTHVHSVSYEIIVVDNASREDEATKIKELYSDIVTLRSESNLGFSGGNNLGIRVAKGAYIFLINNDTYVESDGFHYLTERLESQKNIGAVSPKIRFAFPPQNIQFAGFTSLSAITIRNEMTGFGCPDDGTFDTPHTTPYLHGAALMVKREVIEKVGEMPEIFFLYYEEMDWCTQMTNAGYELWYEPRCTVFHKESQSTGQFSKLRTFYMTRNRLLYTRRNRKGAQRLLSILYQSTIAAGKNSLQFAVKGRFDLFAAVWKGVVRSFSVTSPIRLEHHHHHH | not soluble |
| MADANATICYLNGLSLHTINEVEKILLALPKKGDRCEVQVTKPLNGTIGRSTGDVIASKSMQIHDEPRPLSLSPPLQKSEKSSKSKKLSEYSCMSSTKEQMETVEIRNGSNASAAKKLQCKVLTDQVRVSPIVSCNGVILELDVEVTIPDREEKKKLKLEIECPDFVPARIKIGNKWKKIV | not soluble |
| MGSDKIHHHHHHMKLLMLCREPRLYSCQRLKESAEDNGHQIDILDPNRCLLKLSKNAPHFELYYQVNSKSEPYLLPDYDAIIPRFGSTSTRMGCAVLRHFRTKNIFCLNDDVAFLKARDKWLSLQLLTEQGIAVPNSALSGAEFSATQAILQIQSPTILKTLHGSQGIGVILAENRKSAVSIMETLTQADVPLLMQDFIQEAQGTDIRCFVIGDKVVATMQRIGQEDEFRANFHRGGSAEKIQLTEQEKVLALKATKCLGLDVAGVDLIRSKQGLLVLEVNASPGLEMIEKTSGIDIALQMIVHIEKQFKR | not soluble |
| MSEYNPCLDCGACCGYFRVSFFWGECQSAGGVVPDDLVVQINPTRVAMIGTDAKPCRCVSLQGEIGKEVACTIYANRSSPCREFDASWEGGVHNPSCDDARAAYGLPPLTPPEANEPHWPDDGAEVALEHHHHHH | soluble |
| MGSDKIHHHHHHVSQPTSSLVGKSRASIYRDLVLSAQGVRFGKTAGKDVDVIKYLFALLILLAFSAKGYHPKEAHEPLTTLAVDAMAQCGINLSESTRLQLMQGNLAMDEGAGKLPKELMNTSFAKAVFPMTKRIHNWHFYHPDKTADAQRLAGKTDMSMARLWQAAQAGLEQAPAEHKAYYLGAIIHLIQDVTVPAHAVPVYHGPKIIAWQREFAPLVNYLGFGFRGIFVIHDPVDDWPVNSTGAEQPIAAIPCPELHAASSNLSANFDALRTRVARQTLTALDNPIPGCAAPWRLFWREDLGHRYFAGYTQGIKPFGRANSLSGEGISIDGRPCEPDYQGFVETRHRAAIEATMAALQLSQLGVVSPVPTEAQ | not soluble |
| MGSDKIHHHHHHMNTLEIAKEVFEKEAQAILDLATNLDENFNQAVNLMLNTKGRCIVSGMGKSGHIGAKIAATLASTGTPSFFIHPGEALHGDLGMLTSEDVLIAISNSGETEEILKIIPAIKKREIPLIVMCGKKNSTLVKQGDIFLNIAVEKEACPLQLAPMSSTTATLVMGDALAAALMKVRNFKPDDFALFHPGGSLGRKLLTKVKDLMVSSNLPIVHPDTEFNDLVDVMTSGKLGLCVVLENEKLVGIITDGDLRRALKASDKPRFDFKAKEIMSINPKVVDADAMASEAEGIMLKHKIKEIIVGKEEKVVGIIQLYAIGNV | not soluble |
| PSETFYRAKIQEQRERHARYHDTTYNLEPDIKSTPGGLRDIHTLSWVARRHFGATSLLEMSRYGFLTDAEYRELVECQDFLWRVRFALHIELRRYDNRLTFAHQAQVAENLGYVGEGNRGVEMMMKEFYRTLRRVAELNKMLLKLFDQAIINGGATENAEILDADFQRRGSLIEARKPALFQARPETILDMFLHIANDSTIEGVSPPTLRQLRTARRRLN | not soluble |
| MSLKVIWTVTPVGYQRIAKRCPSCSVKRDFTPSGAFRVNSQKKVLDVWSIYKCTHCDYTWNISLFSRLPVSKINRDLYCRLMANDAATVQYFAYDNAILKRNNAELSGQPDFHIQERWLVSIASHKQVSVSVRISRSFQVSLLSILKKQLLLSAAEIKRRIETGQISGVTMKMLKSRKLKNAKYDLQLSVETLYDRRRIVLTCREGHHHHHH | soluble |
| MGSDKIHHHHHHMTDRSSFIDTARQVVLDEARALDALSESLGDGFAEAVELILRTKGRVIVSGIGKSGHIGHKIAATLASTGTPAYFVHPAEASHGDLGMLSGDDVVLAISNSGEAPELANLLAFTRRFAIPLIGLSSKSESSLMQQADVHLLIPALGEACGFGMVPSISTTLTLAMGDALAIALMKYRDFRPENFRVFHPGGKLGARLSRVSDLMHGGEAVPLIAADTPMSEALLEISRKGFGVVGVTDGAGHLAGIVTDGDLRRHMSGLLDKTAAQVMTANPTTIAPDSLAEEAVAIMNARKITSLFVVDPAEPGVARGLLHIHDCLRVGLG | not soluble |
| PTANIMFDRRVVRGNTYAARILPADATQTQTKGPSPASTKKRTTRTLPPRTPEAVDGRRHIDIQTDVYLEELTDTVPEADTSTQTDAFLDRPPTPLFVPQKTGTDAITQIENGDLFDFDFEVEPILEVLVGKVLEQGLMEVLEEEELAAMRAHQEHFEQIRNAELVATQRMEAAERRKLEEKERRMQQERERVERERVVRQKVAASAFARGYLSGIVNTVFDRLVSSGYIYDPVMREVETAFMPWLKEQAIGYLARGVVARRVVDKLVEDAAAALAANRSTLADKAASTAATVDAWAERQAKMEAELQGKELEAVRRRPTFVLRELKPAVASADAVEAAAAELTAQAEEAANAKWEA | not soluble |
| MDCCEERGVARHKGLSQVGTPGCPRWSQAVSCRCSAYREAAVTAVQMPLTPGYGETPLPHDELAALLPEVVEVLDKPITRADVYDLEQGLQDQVFDLLMPTAVEGSLSLDELLSDHFVRDLHARMFGPV | soluble |
| MGSDKIHHHHHHACDGILEGIYDSPAASDSNELGFIRTDPSTHSGTIYIDATDYRRWTFIDFHTQKVDSVNVTDSEQKEPEEWDIAVHRYDVKTNAGAVLETGFTGFSALRNADAMPEGAYVEDVWTTAKIAIDMSGMMDGNIVYMESYYNEELSKWLNVDKSNMPPTYTLSNKVYMVKLKDGTYAAVRLTNYMNASGVKGFMTIDYIYPFEL | not soluble |
| MNIDTKYHGTVAVNEQDIVHFPHGLPGFADEKRFVLLPLADTPFVILQSVETPALGFVLIEPFSYFPTYEFELDEATVEQLDIESERDVAVYVILTVADPFHETTANLQAPVVINARKRFGKQVILANTPYKTKHRLFPEKVAT | not soluble |

Source: the DeepSol protein solubility set
